Earlier results, collected in PMC6589385.

Target: His37 (UniProt position 37, IIGILHLILWI)
Assay: NMR
Conditions: Membrane-bound wild-type AM2 tetrameric channel

Influenza A virus M2 protein (AM2) transmembrane domain, wild type (Influenza A virus)
pKa: 5.9
